This passage reports Kd results from patent US20070081998A1 (published 2007).

The target in experiment [1] is T1, biotinylated ADDL (bADDL) (UniProt P05067 672-713, N-terminal biotin).
T1 construct: domain: Aβ1-42; Soluble oligomers of Aβ1-42; also called bADDLs; biotinylated high molecular weight ADDL
The experiment is described as follows: BIACORE, bADDL as antigen; column IgG1 #1.

Experiment [2] deals with T1, biotinylated ADDL (bADDL). The experiment is described as follows: BIACORE, bADDL as antigen; column IgG1 #2.
Experiment [3] has as its target T1, biotinylated ADDL (bADDL). The experiment is described as follows: BIACORE, bADDL as antigen; column Fab.
The target in experiment [4] is T2, biotin-Aβ1-20 (UniProt P05067 672-691, not fully specified; biotin (site not stated)).
T2 construct: domain: Aβ1-20; BIACORE antigen standing for monomeric Aβ peptide; also called biotinylated-Aβ1-20
T2 peptide (looked up): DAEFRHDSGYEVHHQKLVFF
The experiment is described as follows: BIACORE, Fab fragment against biotinylated-Aβ1-20.

Experiment [5] concerns the target T1, biotinylated ADDL (bADDL). Nature of the experiment: BIACORE, Fab fragment against bADDL.

B1: 20C2-6A IgG1 (antibody, V domains shown)
VH: QVTLKESGPALVKPTQTLTLTCTFSGFSLSTSGMGVGWIRQPPGKALEWLAHIWWDDDKSYNPSLKSRLTISKDTSKNQVVLTMTNMDPVDTATYYCARRQLGLRSIDAMDYWGQGTTVTVSS
VL: DVVMTQSPLSLPVTPGEPASISCRSSQSILHSNGNTYLEWYLQKPGQSPQLLIYKVSNRFSGVPDRFSGSGSGTDFTLKISRVEAEDVGVYYCFQSSRVPLTFGQGTKLEIK
notes: IgG1 humanized A version; also called 4P1-22
B1: the Kd in experiment [1] amounted to 0.0043 nM; in experiment [2], 0.024 nM.

B2: 20C2-2A Fab (Fab, V domains shown)
VH: QVTLKESGPALVKPTQTLTLTCTFSGFSLSTSGMGVGWIRQPPGKALEWLAHIWWDDDKSYNPSLKSRLTISKDTSKNQVVLTMTNMDPVDTATYYCARRQLGLRSIDAMDYWGQGTTVTVSS
VL: DVVMTQSPLSLPVTPGEPASISCRSSQSILHSNGNTYLEWYLQKPGQSPQLLIYKVSNRFSGVPDRFSGSGSGTDFTLKISRVEAEDVGVYYCFQATRVPLTFGQGTKLEIKR
The molecule B2 displayed a Kd in experiment [3] of 28 nM.

B3: 20C28B Fab (Fab, V domains shown)
VH: QVTLKESGPALVKPTQTLTLTCTLSGFSLSTSGMGVGWIRQPPGKALEWLAHIWWDDDKSYNPSLKSRLTISKDTSKNQVVLTMTNMDPVDTATYYCARRQLGLRSIDAMDYWGQGTTVTVSS
VL: DVVMTQSPLSLPVTPGEPASISCRSSQSILHSNGNTYLEWYLQKPGQSPQLLIYKVSNRFSGVPDRFSGSGSGTDFTLKISRVEAEDVGVYYCLQTTRVPLTFGQGTKLEIKR
Turning to B3, the Kd in experiment [4] and in experiment [5] was 1.1 nM throughout.

B4: 4a-A3 Fab (Fab, V domains shown)
VH: QVTLKESGPALVKPTQTLTLTCTLSGFSLSTSGMGVGWIRQPPGKALEWLAHIWWDDDKSYNPSLKSRLTISKDTSKNQVVLTMTNMDPVDTATYYCARRQLGTRGTDAMDYWGQGTTVTVSS
VL: DVVMTQSPLSLPVTPGEPASISCRSSQSILHSNGNTYLEWYLQKPGQSPQLLIYKVSNRFSGVPDRFSGSGSGTDFTLKISRVEAEDVGVYYCLQTTRVPLTFGQGTKLEIKR
As to B4, the Kd in experiment [4] amounted to 0.849 nM; in experiment [5], 0.0823 nM.

B5: 4b-H11 Fab (Fab, V domains shown)
VH: QVTLKESGPALVKPTQTLTLTCTLSGFSLSTSGMGVGWIRQPPGKALEWLAHIWWDDDKSYNPSLKSRLTISKDTSKNQVVLTMTNMDPVDTATYYCARRQLGRRSVDAMDYWGQGTTVTVSS
VL: DVVMTQSPLSLPVTPGEPASISCRSSQSILHSNGNTYLEWYLQKPGQSPQLLIYKVSNRFSGVPDRFSGSGSGTDFTLKISRVEAEDVGVYYCLQTTRVPLTFGQGTKLEIKR
Turning to B5, the figures for the Kd in experiment [4] and in experiment [5] were 1.33 nM and 1.05 nM, respectively.

B6: 4b-A7 Fab (Fab, V domains shown)
VH: QVTLKESGPALVKPTQTLTLTCTLSGFSLSTSGMGVGWIRQPPGKALEWLAHIWWDDDKSYNPSLKSRLTISKDTSKNQVVLTMTNMDPVDTATYYCARRQLGKLALDAMDYWGQGTTVTVSS
VL: DVVMTQSPLSLPVTPGEPASISCRSSQSILHSNGNTYLEWYLQKPGQSPQLLIYKVSNRFSGVPDRFSGSGSGTDFTLKISRVEAEDVGVYYCLQTTRVPLTFGQGTKLEIKR
For the molecule B6, the equilibrium dissociation constant (Kd) in experiment [4] was found to be 1.72 nM; in experiment [5], 0.376 nM.

B7: 20C2-6A Fab (Fab, V domains shown)
VH: QVTLKESGPALVKPTQTLTLTCTFSGFSLSTSGMGVGWIRQPPGKALEWLAHIWWDDDKSYNPSLKSRLTISKDTSKNQVVLTMTNMDPVDTATYYCARRQLGLRSIDAMDYWGQGTTVTVSS
VL: DVVMTQSPLSLPVTPGEPASISCRSSQSILHSNGNTYLEWYLQKPGQSPQLLIYKVSNRFSGVPDRFSGSGSGTDFTLKISRVEAEDVGVYYCFQSSRVPLTFGQGTKLEIKR
In experiment [3], B7 gave an equilibrium dissociation constant (Kd) of 42 nM.

B8: 20C2-5A Fab (Fab, V domains shown)
VH: QVTLKESGPALVKPTQTLTLTCTFSGFSLSTSGMGVGWIRQPPGKALEWLAHIWWDDDKSYNPSLKSRLTISKDTSKNQVVLTMTNMDPVDTATYYCARRQLGLRSIDAMDYWGQGTTVTVSS
VL: DVVMTQSPLSLPVTPGEPASISCRSSQSILHSNGNTYLEWYLQKPGQSPQLLIYKVSNRFSGVPDRFSGSGSGTDFTLKISRVEAEDVGVYYCFQSSFVPLTFGQGTKLEIKR
Turning to B8, the dissociation constant (Kd) in experiment [3] was 41 nM.

B9: 20C2-5A IgG1 (antibody, V domains shown)
VH: QVTLKESGPALVKPTQTLTLTCTFSGFSLSTSGMGVGWIRQPPGKALEWLAHIWWDDDKSYNPSLKSRLTISKDTSKNQVVLTMTNMDPVDTATYYCARRQLGLRSIDAMDYWGQGTTVTVSS
VL: DVVMTQSPLSLPVTPGEPASISCRSSQSILHSNGNTYLEWYLQKPGQSPQLLIYKVSNRFSGVPDRFSGSGSGTDFTLKISRVEAEDVGVYYCFQSSFVPLTFGQGTKLEIK
notes: IgG1 humanized A version; also called SJ-p2-1F
With B9, the Kd was 0.317 nM in experiment [1] and 0.068 nM in experiment [2].

B10: 20C2-8A IgG1 (antibody, V domains shown)
VH: QVTLKESGPALVKPTQTLTLTCTFSGFSLSTSGMGVGWIRQPPGKALEWLAHIWWDDDKSYNPSLKSRLTISKDTSKNQVVLTMTNMDPVDTATYYCARRQLGLRSIDAMDYWGQGTTVTVSS
VL: DVVMTQSPLSLPVTPGEPASISCRSSQSILHSNGNTYLEWYLQKPGQSPQLLIYKVSNRFSGVPDRFSGSGSGTDFTLKISRVEAEDVGVYYCLQTTRVPLTFGQGTKLEIK
notes: IgG1 humanized A version; also called SJ-p2-39
As for B10, the Kd in experiment [1] amounted to 0.003 nM; in experiment [2], 0.0007 nM.

B11: 20C2-6B IgG1 (antibody, V domains shown)
VH: QVTLKESGPALVKPTQTLTLTCTLSGFSLSTSGMGVGWIRQPPGKALEWLAHIWWDDDKSYNPSLKSRLTISKDTSKNQVVLTMTNMDPVDTATYYCARRQLGLRSIDAMDYWGQGTTVTVSS
VL: DVVMTQSPLSLPVTPGEPASISCRSSQSILHSNGNTYLEWYLQKPGQSPQLLIYKVSNRFSGVPDRFSGSGSGTDFTLKISRVEAEDVGVYYCFQSSRVPLTFGQGTKLEIK
notes: IgG1 humanized B version; also called 4P1-22
For B11, binding in experiment [1] was characterised by a dissociation constant (Kd) of 0.053 nM.

B12: 20C2-3A IgG1 (antibody, V domains shown)
VH: QVTLKESGPALVKPTQTLTLTCTFSGFSLSTSGMGVGWIRQPPGKALEWLAHIWWDDDKSYNPSLKSRLTISKDTSKNQVVLTMTNMDPVDTATYYCARRQLGLRSIDAMDYWGQGTTVTVSS
VL: DVVMTQSPLSLPVTPGEPASISCRSSQSILHSNGNTYLEWYLQKPGQSPQLLIYKVSNRFSGVPDRFSGSGSGTDFTLKISRVEAEDVGVYYCFQGSFIPGTFGQGTKLEIK
notes: IgG1 humanized A version; also called SJ-p3-16
For B12, the Kd in experiment [1] was 3.7 nM.

B13: 20C2-1A IgG1 (antibody, V domains shown)
VH: QVTLKESGPALVKPTQTLTLTCTFSGFSLSTSGMGVGWIRQPPGKALEWLAHIWWDDDKSYNPSLKSRLTISKDTSKNQVVLTMTNMDPVDTATYYCARRQLGLRSIDAMDYWGQGTTVTVSS
VL: DVVMTQSPLSLPVTPGEPASISCRSSQSILHSNGNTYLEWYLQKPGQSPQLLIYKVSNRFSGVPDRFSGSGSGTDFTLKISRVEAEDVGVYYCFQASRVPLTFGQGTKLEIK
notes: IgG1 humanized A version; also called SJ-p2-60
Turning to B13, the Kd in experiment [1] was 0.075 nM.

B14: 20C2-24A IgG1 (antibody, V domains shown)
VH: QVTLKESGPALVKPTQTLTLTCTFSGFSLSTSGMGVGWIRQPPGKALEWLAHIWWDDDKSYNPSLKSRLTISKDTSKNQVVLTMTNMDPVDTATYYCARRQLGLRSIDAMDYWGQGTTVTVSS
VL: DVVMTQSPLSLPVTPGEPASISCRSSQSILHSNGNTYLEWYLQKPGQSPQLLIYKVSNRFSGVPDRFSGSGSGTDFTLKISRVEAEDVGVYYCGQTTLVPLTFGQGTKLEIK
notes: IgG1 humanized A version; also called SJ-p2-44
On to B14, for which the dissociation constant Kd in experiment [1] came out at 0.114 nM.

B15: 20C2-2A IgG1 (antibody, V domains shown)
VH: QVTLKESGPALVKPTQTLTLTCTFSGFSLSTSGMGVGWIRQPPGKALEWLAHIWWDDDKSYNPSLKSRLTISKDTSKNQVVLTMTNMDPVDTATYYCARRQLGLRSIDAMDYWGQGTTVTVSS
VL: DVVMTQSPLSLPVTPGEPASISCRSSQSILHSNGNTYLEWYLQKPGQSPQLLIYKVSNRFSGVPDRFSGSGSGTDFTLKISRVEAEDVGVYYCFQATRVPLTFGQGTKLEIK
notes: IgG1 humanized A version; also called SJ-p1-18
Turning to B15, the figures for the dissociation constant (Kd) in experiment [1] and in experiment [2] were 0.015 nM and 0.0003 nM, respectively.

B16: 20C2-8B IgG1 (antibody, V domains shown)
VH: QVTLKESGPALVKPTQTLTLTCTLSGFSLSTSGMGVGWIRQPPGKALEWLAHIWWDDDKSYNPSLKSRLTISKDTSKNQVVLTMTNMDPVDTATYYCARRQLGLRSIDAMDYWGQGTTVTVSS
VL: DVVMTQSPLSLPVTPGEPASISCRSSQSILHSNGNTYLEWYLQKPGQSPQLLIYKVSNRFSGVPDRFSGSGSGTDFTLKISRVEAEDVGVYYCLQTTRVPLTFGQGTKLEIK
notes: IgG1 humanized B version; also called SJ-p2-39
With B16, the figures for the Kd in experiment [1] and in experiment [2] were 0.013 nM and 0.0008 nM, respectively.

B17: Mouse-20C2 Fab (Fab, V domains shown)
VH: QVTLKESGPGILKPSQTLSLTCSLSGFSLSTSGMGVGWFRQPSGKGLEWLAHIWWDDDKSYNPSLKSRLTISKYTSRNQVFLTITSVDTADTATYYCARRQLGLRSIDAMDYWGQGTSVTVSS
VL: DVLMTQTPLSLPVSLGDQASISCRSSQSILHSNGNTYLEWYLQKPGQSPKLLIYKVSNRFSGVPDRFSGSGSGTDFTLKISRVEAEDLGVYYCFQGSLVPLTFGAGTKLELK
notes: Value in the Fab column of the row Mouse-20C2; also called murine 20C2
The molecule B17 had a Kd in experiment [3] of 62 nM.

B18: Mouse-20C2 antibody (IgG1) (antibody, V domains shown)
VH: QVTLKESGPGILKPSQTLSLTCSLSGFSLSTSGMGVGWFRQPSGKGLEWLAHIWWDDDKSYNPSLKSRLTISKYTSRNQVFLTITSVDTADTATYYCARRQLGLRSIDAMDYWGQGTSVTVSS
VL: DVLMTQTPLSLPVSLGDQASISCRSSQSILHSNGNTYLEWYLQKPGQSPKLLIYKVSNRFSGVPDRFSGSGSGTDFTLKISRVEAEDLGVYYCFQGSLVPLTFGAGTKLELK
notes: value in the column IgG1 #1; also called murine 20C2
In the case of B18, in experiment [1], the Kd was determined as 4.1 nM.
